According to US8597660B2, “Therapeutic approach to neurodegenerative disorders using a TFP5-peptide” (The United States of America, as represented by the …, priority 2010, dated 2013):
“Also recorded” adds a separate entry of the source.

Assays:
Cdk5/P35 [1] = assay: Kinase assay of Cdk5 immunoprecipitates from cortical neurons, infected or endogenous Cdk5/P35; format: cell-based, rat; settings: E-18 rat cortical neurons co-infected with P5
Procedure: (§1) Briefly, 7 days in culture (7 DIC) primary rat cortical neurons were infected with P25, P35, Cdk5 wild-type, dominant negative-Cdk5 and P5 using the lentiviral gene delivery as described earlier. Cdk5 was immunoprecipitated using the polyclonal C8 antibody overnight at 4° C. and immunoglobulin isolated using Protein A sepharose beads for 2 hours at 4° C. Immunoprecipitates were washed three times with lysis buffer and then once with 1× kinase buffer containing 20 mM Tris-Cl pH 7.4, 1 mM EDTA, 1 mM EGTA, 10 mM MgCl2, 10 mM sodium fluoride and 1 mM sodium orthovanadate. Endogenous Cdks were immunoprecipitated from HEK 293 cells using their respective antibodies and treated as above. […] ATP with 20 μg of histone H1 as the substrate. Phosphorylation was performed in a final volume of […] incubated at 30° C. for 60 minutes, stopped by the addition of 10% SDS sample buffer and heating at 95° C. for 5 minutes. Samples were separated by SDS-PAGE, gels were stained with Coomassie, destained, dried and exposed to autoradiography. In pad assays, 25 μl aliquots of the incubation mixture were placed on a Whatman p80 paper square, washed and dried and placed in a scintillation vial for counting.

Cdk5/P35 [2] = biological target: T1, Cdk5/P35 (Rattus norvegicus, UniProt Q03114); assay: as above; format: cell-based; settings: cortical neurons infected only with P5, or uninfected treated with 20 μM roscovitine
T1 construct: endogenous in cells; host or cells: E-18 rat cortical neurons
Procedure: as §1

Cdk5/P35 [3] = biological target: Cdk5/P35 (Homo sapiens, UniProt Q00535); assay: Cdk5/P35 kinase assay after pre-incubation with β-tubulin; format: biochemical
Procedure: (§2) Tubulin polymerization was performed as detailed in a previous report (Hou et al., J. Biol. Chem., 282(26), 18666-18670, 2007). Briefly, active kinase Cdk5/P35 (2 ng/μL) or active Cdk5/P25 (1 ng/μL) were incubated with β-tubulin (enzyme: tubulin at 1:100) in the PEM buffer (80 mM PIPES, 2 mM MgCl2, 1 mM EGTA PH 7.0) supplemented with 1 mM GTP at 35° C. for 45 minutes. Following the incubation, Cdk5 kinase assays were performed with or without the addition of 0.45 μM or 0.90 μM P5.
(§3) To further explore this possibility, β-tubulin (which is enriched in neurons) was used to perform a study in vitro to mimic P35 interactions in cells. Cdk5/P35 and Cdk5/P25 active kinases were pre-incubated with β-tubulin (Cdk5 kinase:tubulin=1:100) respectively at 35° C. for 45 minutes to 1 hour under conditions that would promote tubulin polymerization, followed by a Cdk5 kinase assay with/without the addition of P5. […] Cdk5/P25 activity, however, was inhibited 60% after pre-incubation at the lower P5 concentration (0.45 μM) (FIG. 9B, lane 4 compared with lane 1) (p<0.01). […] On the other hand, P25, lacking the P10 domain, fails to bind these proteins, and P5 readily binds with Cdk5 in the Cdk5/P25 complex to inhibit activity.

Cdk5/P25 [4] = biological target: T2, Cdk5/P25 (Homo sapiens, UniProt Q00535); assay: Cdk5/P25 kinase assay after pre-incubation with β-tubulin; format: biochemical
Procedure: as §2, §3

Cdk5/P25 [5] = biological target: T2, Cdk5/P25; assay: In vitro kinase (pad) assay of active Cdk5/P25 with histone H1 as substrate; format: biochemical
Procedure: Kinase assays were performed as previously described (Veeranna, et al., J Neurosci 18(11), 4008-4021, 1998). Briefly, 7 days in culture (7 DIC) primary rat cortical neurons were infected with P25, P35, Cdk5 wild-type, dominant negative-Cdk5 and P5 using the lentiviral gene delivery as described earlier. Cdk5 was immunoprecipitated using the polyclonal C8 antibody overnight at 4° C. and immunoglobulin isolated using Protein A sepharose beads for 2 hours at 4° C. Immunoprecipitates were washed three times with lysis buffer and then once with 1× kinase buffer containing 20 mM Tris-Cl pH 7.4, 1 mM EDTA, 1 mM EGTA, 10 mM MgCl2, 10 mM sodium fluoride and 1 mM sodium orthovanadate. Endogenous Cdks were immunoprecipitated from HEK 293 cells using their respective antibodies and treated as above. Kinase assays were performed in the same buffer containing 1 mM DTT, 0.1 mM ATP and 0.185 MBq [γ-32P] ATP with 20 μg of histone H1 as the substrate. Phosphorylation was performed in a final volume of […] incubated at 30° C. for 60 minutes, stopped by the addition of 10% SDS sample buffer and heating at 95° C. for 5 minutes. Samples were separated by SDS-PAGE, gels were stained with Coomassie, destained, dried and exposed to autoradiography. In pad assays, 25 μl aliquots of the incubation mixture were placed on a Whatman p80 paper square, washed and dried and placed in a scintillation vial for counting.
These are GST-P1 (E211-A277 of SEQ ID NO: 16), 67 amino acid residues; GST-P2 (M237-A277), 41 residues; GST-P3 (E221-L267 of SEQ ID NO: 16), 47 residues; GST-P4 (E221-L249 of SEQ ID NO: 16), 29 residues and GST-P5 (K254-A277 of SEQ ID NO: 16) 24 residues. Each was incubated with active Cdk5/P25 in a kinase assay in vitro. […] FIG. 10 provides a comparison of P5 and CIP, relative to P35.
In a dose-dependent kinase assay the effective inhibitory concentration of P5 for both the Cdk5/P25 and Cdk5/P35 complexes was evaluated. His-P5 peptide was added at different concentrations to the in vitro assay containing 100 μM [γ32-P] ATP and histone H1. Inhibition increased progressively with increasing P5 concentration in both complexes (Compare FIGS. 2A, 2B with 2C, 2D).
P5, a 24 amino acid peptide derived from Cdk5 regulator p35, was modified by conjugating it with TAT PTD at the C-terminal end and with FITC (using a GGG linker) at the N-terminus to produce a fluorescent (FITC-labeled) TFP5 (SEQ ID NO: 2) peptide. In a dose-dependent kinase assay the effective inhibitory concentration of TFP5 for both the Cdk5/P25 and Cdk5/P35 complexes was evaluated. His-P5 peptide was added at different concentrations to the in vitro assay containing 100 μM [γ32-P] ATP and histone H1. […] Data represent means of four independent experiments with error bars representing SEM (*p≦0.05, **p≦0.001).

Chain of Cdk5/P35 (Homo sapiens, UniProt Q00535) (Q00535 whole entry, species assumed): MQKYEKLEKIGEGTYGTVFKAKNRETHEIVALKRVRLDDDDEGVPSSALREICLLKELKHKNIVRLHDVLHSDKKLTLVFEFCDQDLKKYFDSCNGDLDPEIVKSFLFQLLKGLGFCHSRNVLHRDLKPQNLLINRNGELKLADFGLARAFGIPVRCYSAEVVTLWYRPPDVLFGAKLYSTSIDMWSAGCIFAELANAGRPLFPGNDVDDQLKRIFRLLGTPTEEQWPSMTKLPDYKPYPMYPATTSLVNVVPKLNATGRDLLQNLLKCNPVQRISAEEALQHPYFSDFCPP
T2 sequence (Q00535 whole entry, species assumed): as above
T1 sequence (Q03114 whole entry): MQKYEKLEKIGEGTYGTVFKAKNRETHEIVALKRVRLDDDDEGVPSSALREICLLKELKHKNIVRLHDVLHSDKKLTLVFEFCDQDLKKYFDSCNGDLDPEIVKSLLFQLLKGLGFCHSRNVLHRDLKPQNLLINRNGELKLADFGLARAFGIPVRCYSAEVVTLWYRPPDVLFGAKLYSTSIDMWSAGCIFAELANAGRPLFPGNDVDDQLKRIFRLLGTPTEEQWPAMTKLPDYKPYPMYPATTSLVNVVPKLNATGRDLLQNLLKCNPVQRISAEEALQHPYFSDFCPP
T1 sequence (P61810 2-307 partner): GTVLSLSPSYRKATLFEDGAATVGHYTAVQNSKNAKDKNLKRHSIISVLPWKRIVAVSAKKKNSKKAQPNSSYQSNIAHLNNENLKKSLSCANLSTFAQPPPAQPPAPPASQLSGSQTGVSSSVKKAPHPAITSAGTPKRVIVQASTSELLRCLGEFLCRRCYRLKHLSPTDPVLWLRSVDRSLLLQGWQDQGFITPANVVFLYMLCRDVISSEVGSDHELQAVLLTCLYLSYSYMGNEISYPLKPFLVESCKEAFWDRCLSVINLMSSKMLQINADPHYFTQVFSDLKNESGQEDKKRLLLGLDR

Inhibition of Cdk5 activity in neurons co-infected with Cdk5/P35 (Cdk5/P35 [1]): 10-20%
Effect on endogenous Cdk5/P35 activity (Cdk5/P35 [2]): no reduction in activity
Inhibition of Cdk5/P25 activity (Cdk5/P25 [5]; 0.7 μM P5): approximately 70%
Substance: P5: 24 residue peptide derived from Cdk5 activator P35 (K254-A277 of SEQ ID NO: 16); Cdk5 inhibitory peptide (KEAFWDRCLSVINLMSSKMLQINA; listed as Homo sapiens)
Inhibition of Cdk5/P35 activity pre-incubated with polymerized tubulin (Cdk5/P35 [3]; 0.45 μM P5): no effect on pre-incubated Cdk5/P35 activity; also recorded: not inhibited; also recorded: had no effect on Cdk5/P35
Inhibition of Cdk5/P35 activity with unpolymerized tubulin (no pre-incubation) (Cdk5/P35 [3]; 0.45 μM P5): P5 inhibits both kinases equally; also recorded: inhibited both Cdk5/P35 and Cdk5/P25 activities equally; also recorded: inhibited both complexes equally
Inhibition of Cdk5/P35 activity pre-incubated with polymerized tubulin (Cdk5/P35 [3]; 0.9 μM P5): both kinase complexes are inhibited equally; also recorded: both Cdk5 complexes were inhibited
Inhibition of Cdk5/P25 activity with unpolymerized tubulin (no pre-incubation) (Cdk5/P25 [4]; 0.45 μM P5): P5 inhibits both kinases equally; also recorded: inhibited both Cdk5/P35 and Cdk5/P25 activities equally; also recorded: inhibited both complexes equally
Inhibition of Cdk5/P25 activity pre-incubated with polymerized tubulin (Cdk5/P25 [4]; 0.9 μM P5): both kinase complexes are inhibited equally; also recorded: both Cdk5 complexes were inhibited
Specificity of inhibition, Cdk5/P25 versus Cdk5/P35 (Cdk5/P25 [5]; in vitro (test tube) assay, 0.05 to 1.2 μM): equally inhibits each Cdk5 complex in a dose-dependent manner; also recorded: not specific for Cdk5/P25; also recorded: non-specific in vitro
Inhibition of Cdk5/P25 activity, comparison among peptides and CIP (Cdk5/P25 [5]; in vitro kinase assay, histone H1, FIG. 1): most effective inhibitor of Cdk5/P25; also recorded: more effective inhibitors of Cdk5/P25 activity than CIP
